Experiments:
[1] = biological target: T1, cynomolgus monkey PVRIG on FlpinCHO-cyno PVRIG cells (cynomolgus monkey, UniProt A0A2K5WVV8 41-322); experiment: FACS, FlpinCHO-cyno PVRIG cells
T1 construct: whole, on cells
T1 sequence: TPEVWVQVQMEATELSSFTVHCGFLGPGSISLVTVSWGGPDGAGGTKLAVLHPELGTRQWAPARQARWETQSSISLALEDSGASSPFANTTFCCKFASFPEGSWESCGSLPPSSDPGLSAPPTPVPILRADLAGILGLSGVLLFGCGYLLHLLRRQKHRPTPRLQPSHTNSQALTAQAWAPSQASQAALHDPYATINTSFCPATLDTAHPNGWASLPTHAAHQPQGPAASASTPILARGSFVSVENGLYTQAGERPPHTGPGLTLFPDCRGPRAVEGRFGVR
Method: The antibodies were diluted from the highest concentration of 46 nM (two-fold concentration) with staining buffer by 3.3-fold serial dilution. The diluted antibodies were added to the well containing 50 μL of cell suspension. The plate was placed on a microplate shaker at 400 rpm for 1 minute to fully mix the antibodies and cells, and then incubated at 4° C. for 30 minutes. After the incubation, the cells were washed twice with staining buffer (200 μL per well) and centrifuged at 350×g for 5 minutes to discard the supernatant. The PE goat anti-human IgG Fc antibody (ebioscience, 12-4998-82) was diluted 250 times with staining buffer, added into the washed wells (100 μL per well), mixed well, and stained at 4° C. for 30 minutes. After staining, the cells were washed twice with staining buffer, finally resuspended with 200 μL staining buffer and analyzed by flow cytometry (BD, Canto II). The stronger the signal, the stronger the ability of the antibodies binds to PVRIG. An antibody binding curve was drawn with concentration of antibodies as the abscissa and the corresponding Mean Fluorescence Intensity (MFI) as the ordinate. The AUC value of the curve was calculated by using a Four Parameter Logistic Fit (GraphPadPrism9). The stronger the AUC value, the stronger the ability of the antibodies binds to FlpinCHO-PVRIG and FlpinCHO-cyno PVRIG. […] The binding activity of the antibodies was normalized to the positive control COM701-hIgG1 and SRF813-hIgG1. The higher the percentage value, the stronger the binding ability of the antibodies.
The methods refer to Example 19. The stronger the AUC value, the stronger the ability of the humanized antibodies binds to FlpinCHO-human/cyno PVRIG.

[2] = biological target: T2, human PVRIG-his (AcroBiosystems, Cat NO. PVG-H52H4) (human, UniProt Q6DKI7 41-171, limits assumed); experiment: SPR (BIAcore), antibody captured on Protein A chip, human PVRIG-His analyte
T2 construct: also called human PVRIG protein
T2 sequence (looked up): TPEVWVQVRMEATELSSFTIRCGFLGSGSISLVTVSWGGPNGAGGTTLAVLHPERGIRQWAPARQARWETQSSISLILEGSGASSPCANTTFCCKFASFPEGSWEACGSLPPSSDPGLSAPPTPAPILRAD
Method: Biacore was used to detect the specific binding between anti-PVRIG antibody and human PVRIG protein. Protein A chip was used in the BIAcore assay. The time required for the chip to capture the diluted antibody and saturate the binding antigen to reach Rₘₐₓ (Maximum binding capacity, 50 RU) was measured by manual run. […] The affinity of antibody for antigen was measured by multi-cycle kinetics. In each cycle, the antibodies were injected prior to the injection of gradient concentraions of PVRIG proteins allowing the occurrence of antibody-antigen association and dissociation After each cycle, the Protein A chip was regenerated by Glycine, pH 1.5 (to remove the proteins on the chip). The affinity of antibody for antigen was calculated by BIAcore T200 analysis software.
The methods refer to Example 10.

[3] = biological target: T3, Full-length human TIGIT on CHO-K1 cells (CHO-K1 human TIGIT) (human, UniProt Q495A1 22-244); experiment: FACS; CHO-K1 human TIGIT high expression strain
T3 construct: NCBI XP_024309156.1; the entry includes the signal peptide (limits not recoverable); The strain (high, medium, low) is named under assay; also called high expression strain 1D2; medium expression strain 2D10
T3 sequence: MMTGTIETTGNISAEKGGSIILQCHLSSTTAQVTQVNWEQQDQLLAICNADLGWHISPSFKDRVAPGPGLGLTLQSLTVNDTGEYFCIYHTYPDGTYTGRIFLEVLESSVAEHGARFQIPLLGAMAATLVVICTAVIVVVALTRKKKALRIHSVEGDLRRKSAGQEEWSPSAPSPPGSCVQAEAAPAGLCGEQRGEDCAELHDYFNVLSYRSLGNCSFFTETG
Summary of the method: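 The EC50 was derived from binding curves obtained by flow cytometry on CHO-K1 cells expressing full-length TIGIT of human or cynomolgus monkey origin. Cells (2×10⁵/50 μL, 1% BSA-PBS) were mixed 1:1 with a 12-point, 3-fold antibody dilution series that began at 80 nM before mixing, then incubated for 60 min at 4° C.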

[4] = biological target: T4, human PVRIG-mFc protein (Acro, PVG-H5253) (human, UniProt Q6DKI7 41-171, limits assumed); experiment: FACS competition, PVRIG-mFc binding to CHO-K1-CD112 cells, competitor CD112 on cells
T4 construct: bought protein
T4 sequence (looked up): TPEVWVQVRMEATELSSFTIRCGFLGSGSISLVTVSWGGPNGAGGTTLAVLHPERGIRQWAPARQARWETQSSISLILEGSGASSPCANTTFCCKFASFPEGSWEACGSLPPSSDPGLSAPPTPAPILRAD

| Binder | AUC % to COM701-hIgG1 [1] | AUC % to SRF813-hIgG1 [1] | AUC % to parental Ab [1] | Kd [2] | koff [2] | kon [2] | EC50 [3] | % AUC to COM701-hIgG4 [4] | % AUC to SRF813-hIgG1 [4] | % IC50 to COM701-hIgG4 [4] | % IC50 to SRF813-hIgG1 [4] |
| --- | --- | --- | --- | --- | --- | --- | --- | --- | --- | --- | --- |
| PVRIG-A118-H2 (Fc fusion, humanized variant of PVRIG-A118; also called A118.VH2; not shown: constant part not restated for the humanized forms; parents are VHH-hinge-CH2-CH3 of human IgG1; detected by anti-human) EVQLVESGGGLVQPGGSLRLSCAASETYFDLYVMGWYRQAPGKDRELVATITYTGSIKYVDSVKGRFTISRDNAKNSLYLQMNSLRAEDTAVYYCNADPSGLGRKVYWGQGTMVTVSS | 14.6% | 17.8% | 23.4% | 0.517 nM | 0.00082 s⁻¹ | 1.59e+06 M⁻¹ s⁻¹ | – | – | – | – | – |
| TIGIT-002-H4L3 (antibody, V domains shown, Humanized anti-TIGIT antibody) VH: EVQLQESGPGLVKPSETLSLTCAVSGYSITSDSWNWIRQPPGKKLEYIGYISYSGNTYYNPSLKSRVTISRDTSKNQFSLKLSSVTAADTAVYYCARLDFSNYGGAVDYWGQGTTVTVSS VL: DIVMTQSPDSLAVSLGERATINCKASQNVRTAVAWYQQKPGQSPKLMIYSASYRYTGVPDRFSGSGSGTDFTLTISSLQAEDVAVYYCQQYYTTPWTFGGGTKVEIK | – | – | – | – | – | – | 0.297 nM | – | – | – | – |
| TIGIT-005-H2L1d (antibody, V domains shown, Humanized anti-TIGIT antibody with NG-site mutation in VL) VH: EVQLVQSGAEVKKPGASVKVSCKASGYAFTNYLIEWVRQAPGQRLEWMGVINPGSGGTNYKEKFKGRVTITADKSSSTAYMELSSLRSEDTAVYYCARGEYFFFDYWGQGTTVTVSS VL: DIVMTQSPDSLAVSLGERATINCKASQHVSNAVAWYQHKPGQSPKLLIYSASYRYTGVPDRFSGSGSGTDFTLTISSLQAEDVAVYYCQQHYNTPHTFGGGTKVEIK | – | – | – | – | – | – | 0.321 nM | – | – | – | – |
| TIGIT-006-H5L3 (antibody, V domains shown, Humanized anti-TIGIT antibody) VH: EVQLQESGPGLVKPSETLSLTCAVSGYSMTSDYWNWIRQPPGKKLEYIGYISYSGRTYYNPSLKSRVTISRDTSKNQFSLKLSSVTAADTAVYYCARGDYSNYGGAMYDWGQGTTVTVSS VL: DIVMTQSPDSLAVSLGERATINCRASQGVSTTIAWYQQKPGQSPKLLIYSASYRYTGVPRFSGSGSGTDFTLTISSLQAEDVAVYYCQQYYSSPFTFGGGTKVEIK | – | – | – | – | – | – | 0.443 nM | – | – | – | – |
| PVRIG-A118 (Fc fusion, heavy chain antibody VHH-hinge-CH2-CH3, human IgG1 constant part; not shown: human IgG1 hinge-CH2-CH3) QVQLVESGGGLVQAGGSLRLSCAASETYFDLYVMGWYRQAPGKDRELVATITYTGSIKIVDSVKDRFTISRGDAKNTVSLQMSSLKPEDTAVYFCNADPSGLGRKVYWGQGTQVTVSS | 62.4% | 76.1% | 100% | 0.483 nM | 0.00102 s⁻¹ | 2.12e+06 M⁻¹ s⁻¹ | – | 110% | 75.6% | 111% | 97.4% |
| TIGIT-070-H1L1 (antibody, V domains shown, Humanized anti-TIGIT antibody) VH: EVQLVQSGAEVKKPGASVKVSCKASGYTFTNYYMHWVRQAPGQRLEWMGRIDPDSGGSKYNEKFKSRVTITVDKSASTAYMELSSLRSEDTAVYYCAREGHYGFYSDYWGQGTTVTVSS VL: DIQMTQSPSSLSASVGDRVTITCRVSENIYSYLAWYQQKPGKSPKLLIYNAKTLAEGVPSRFSGSGSGTDFTLTISSLQPEDFATYYCQHHYGNPLTFGPGTKVDIK | – | – | – | – | – | – | 0.494 nM | – | – | – | – |
| PVRIG-A50 (Fc fusion, heavy chain antibody VHH-hinge-CH2-CH3, human IgG1 constant part; also called PVRIG-50; not shown: human IgG1 hinge-CH2-CH3) EVQLVESGGGLVQPGGSLRLSCAASGFTFSYYDMSWVRQAPGKGLEWVSTINSNGGRTSYVDSVKGRFTISRDNTKNTLYLQMNSLKPEDTAVYYCVEGDPHNFGLENLSLRDFGSWGQGTQVTVSS | 47.1% | 57.8% | 100% | 0.043 nM | 1.9e-05 s⁻¹ | 443000 M⁻¹ s⁻¹ | – | 104% | 81% | 99.1% | 91.8% |
| PVRIG-A105 (Fc fusion, heavy chain antibody VHH-hinge-CH2-CH3, human IgG1 constant part; not shown: human IgG1 hinge-CH2-CH3) EVQLVESGGGLVQAGGSLRLSCAASGRTFDRHTMTWFRQAPGKEREFVATASRIPGDTYYSHSVKGRFTISRDNAKNTVYLQLNNLKPEDTAVYYCAATSAYCSEVDCYEKGSWYDNWGQGIQVTVSS | 87.5% | 108% | 100% | 0.675 nM | 0.000486 s⁻¹ | 721000 M⁻¹ s⁻¹ | – | 115% | 84.1% | 99.7% | 97.7% |

— patent publication US20240343803A1 (SHANDONG SIMCERE BIOPHARMACEUTICAL, published 2024)
